Biological target: the molecule itself
Assay: SEC

B1: unphosphorylated kinase domain of With No Lysine(K) kinase-3 (WNK3) (domain or fragment)
chain: not shown
stoichiometry N: 2

Reference: article doi:10.1101/435008 (bioRxiv, 2019)
